# Numbering of substitutions follows the chain as printed. Names may count otherwise.
# B1: S166: protease according to SEQ ID NO: 3 used as the hydrolytic enzyme (starting enzyme) (protein, listed as Bacillus lentus)
# chain: AQSVPWGISRVQAPAAHNRGLTGSGVKVAVLDTGISTHPDLNIRGGASFVPGEPSTQDGNGHGTHVAGTIAALNNSIGVLGVAPSAELYAVKVLGADGEGAISSIAQGLEWAGNNGMHVANLSLGSPSPSATLEQAVNSATSRGVLVVAASGNSGASSISYPARYANAMAVGATDQNNNRASFSQYGAGLDIVAPGVNVQSTYPGSTYASLNGTSMATPHVAGAAALVKQKNPSWSNVQIRNHLKNTATSLGSTNLYGSGLVNAEAATR
# B2: S166G/Q191R: protease of SEQ ID NO: 3 with amino acid substitutions S166G and Q191R in the count according to SEQ ID NO: 1 (protein, listed as Bacillus lentus)
# chain: B1 chain with S160G, Q185R
# B3: S166V: protease of SEQ ID NO: 3 with amino acid substitution S166V in the count according to SEQ ID NO: 1 (protein, listed as Bacillus lentus)
# chain: B1 chain with S160V
# What was measured:
# [1] = test system: protease according to SEQ ID NO: 3; test: Relative proteolytic activity with reversible inhibitor in liquid surfactant preparation (Example 1); type: biochemical; settings: 50% conc. surfactant preparation, 0.92 mM AAPF, 25° C., pH 8.6, relative to same protease without inhibitor; for relative activity, 3-HPBA: 3-HPBA in amount inhibiting starting enzyme by 20-40%; for relative activity, 4-FPBA: 4-FPBA in amount inhibiting starting enzyme by 20-40%; for relative activity, Boric acid: boric acid in amount inhibiting starting enzyme by 20-40%; for relative activity, BMA: benzylmalonic acid in amount inhibiting starting enzyme by 20-40%
# Excerpt: The relative activity to be determined in process step c) of the hydrolytic enzyme modified in process step b) is given by [measured activity of the hydrolytic enzyme modified in process step b) in the presence of the component that stabilizes the hydrolytic enzyme] divided by [measured activity of the hydrolytic enzyme modified in process step b) in the absence of the component that stabilizes the hydrolytic enzyme] multiplied by 100.
# The relative activity of the starting enzyme to be determined in process step c) is given by [measured activity of the starting enzyme in the presence of the component that stabilizes the hydrolytic enzyme] divided by [measured activity of the starting enzyme in the absence of the component that stabilizes the hydrolytic enzyme] multiplied by 100.
# The nucleic acid sequence of the hydrolytic enzyme present on a plasmid was modified individually or in combination as indicated in Tables 1 and 2 using site directed mutagenesis by means of specific, adapted primers using a Phusion Hot Start Polymerase at the positions S166, A187, F189 or Q191 in the counting according to SEQ ID NO: 1, and the resulting variants were transformed into a suitable host. Active clones were selected by means of a protease-sensitive medium and the DNA sequence was sequenced after isolation of the plasmid for identification purposes. The modified proteases were expressed in the Bacillus host and prepared for the activity determination.
# The activity was determined in a liquid preparation that was constituted as follows (all data in wt %): 0.3-0.5% xanthan, 0.2-0.4% defoamer, 6-7% glycerin, 0.3-0.5% ethanol, 4-7% FAEOS (fatty alcohol ether sulfate), 24-28% non-ionic surfactants, 1-2% sodium citrate (dihydrate), 2-4% soda, 14-16% cocoanut fatty acids, 0.5% HEDP (1-hydroxyethane-(1,1-diphosphonic acid)), 0-0.4% PVP (polyvinyl pyrrolidone) 0-0.5% optical brightener, 0-0.001% % colorant, the remainder being demineralized water.
# To a 50% conc. liquid preparation of the liquid surfactant preparation were added 0.92 mM AAPF. The reversible inhibitor to be tested was also comprised in the required amount to inhibit the starting enzyme by 20-40%. 20 μl of the respective protease (starting enzyme as well as modified protease variants) were added and the proteolytic activity determined from the release of the chromophore para-nitroaniline (pNA) from the substrate suc-L-Ala-L-Ala-L-Pro-L-Phe-p-nitroanilide (suc-AAPF-pNA). The protease cleaves the substrate and releases pNA. The released pNA causes the extinction at 410 nm to increase; the change in extinction as a function of time is a measure of the enzymatic activity (see Del Mar et al., 1979). The measurement was carried out at a temperature of 25° C., at pH 8.6 and a wavelength of 410 nm.
# The measured activity was compared with the activity of a reference formulation of the same protease sample without inhibitor and the respective relative activities of the modified proteases and the starting enzyme were determined. […] The results are presented in the following Tables 1 and 2 (the relative activities are each given).
# [2] = test system: protease according to SEQ ID NO: 3; test: Inhibition measurements in the biochemical test (Example 2); settings: 0.1 M Tris/HCl pH 8.6 with Brij35, suc-AAPF-pNA
# Description: The variants S166V and S166G/Q191R as well as the starting enzyme according to SEQ ID NO: 3 were expressed in a suitable expression system, further purified by means of ion exchange chromatography and prepared for the activity determinations in 0.1 M Tris/HCl buffer pH 8.6, comprising Brij35. To the formulations were added increased amounts of the reversible inhibitor 3-HPBA or BMA (see Tables 3 and 4) and the proteolytic residual activity of the respective protease was determined from the release of the chromophore para-nitroaniline (pNA) from the substrate suc-L-Ala-L-Ala-L-Pro-L-Phe-p-nitroanilide (suc-AAPF-pNA) as described above.
Molecule,"relative activity, 3-HPBA ([1]; Table 1) [%]","relative activity, 4-FPBA ([1]; Table 1) [%]","relative activity, Boric acid ([1]; Table 1) [%]","relative activity, BMA ([1]; Table 2) [%]","relative activity, Boric acid ([1]; Table 2) [%]","proteolytic residual activity, 3-HPBA ([2]; 3-HPBA 0.05 mM) [%]","proteolytic residual activity, 3-HPBA ([2]; 3-HPBA 0.1 mM) [%]","proteolytic residual activity, 3-HPBA ([2]; 3-HPBA 0.5 mM) [%]","proteolytic residual activity, 3-HPBA ([2]; 3-HPBA 1 mM) [%]","proteolytic residual activity, 3-HPBA ([2]; 3-HPBA 1.5 mM) [%]","proteolytic residual activity, BMA ([2]; BMA 0.05 Gew.-%) [%]","proteolytic residual activity, BMA ([2]; BMA 0.5 Gew.-%) [%]","proteolytic residual activity, BMA ([2]; BMA 1.0 Gew.-%) [%]","proteolytic residual activity, BMA ([2]; BMA 1.7 Gew.-%) [%]","proteolytic residual activity, BMA ([2]; BMA 2.5 Gew.-%) [%]","proteolytic residual activity, BMA ([2]; BMA 3.3 Gew.-%) [%]","proteolytic residual activity, BMA ([2]; BMA 4.0 Gew.-%) [%]","proteolytic residual activity, BMA ([2]; BMA 5.0 Gew.-%) [%]"
B1,83,75,83,81,79,93,89,81,65,56,96,95,93,94,74,73,78,64
B2,,,,35,57,,,,,,88,55,42,35,38,32,36,32
B3,53,71,59,,,84,87,65,51,40,,,,,,,,

# — patent US9695461B2, “Method for adapting a hydrolytic enzyme to a component that stabilizes the hydrolytic enzyme” (Henkel AG & Co. KGaA, priority 2011, dated 2017)
